Data: publication PMC11021511 (Nature Communications, 2024)

Experiments:
Assay in all cases: affinity purification with mass spectrometry; ESK1 antibody cross-linked to Protein A/G beads as bait; lysate of primary human liver tissue (0.5% IGEPAL 630, 50 mM Tris pH 8.0, 150 mM NaCl), at least 5 h at 4 °C; washes with 150 mM NaCl, 450 mM NaCl and no salt; peptides eluted with 10% acetic acid, 5 kDa filter, LC-MS2; enrichment against the MAGE-A4 antibody as control; triplicates
Details in all cases: one partner purified
[1] = biological target: T1, HLA-A*02:01 in complex with peptide ALDOA_(216-224) (…) (Homo sapiens, HLA-A*02:01)
T1 construct: HLA class I heavy chain, allele HLA-A*02:01, human; beta-2-microglobulin, human; The presenting allele is assigned by NetMHCpan 4.1 prediction (rank <= 2); source: peptide pulsed on T2 cells (JNFAT assay); copies: + +

[2] = biological target: T2, HLA-A*02:01 in complex with peptide RL5_(117-125) (…) (Homo sapiens, HLA-A*02:01)
T2 construct: HLA class I heavy chain, allele HLA-A*02:01, human; beta-2-microglobulin, human; The presenting allele is assigned by NetMHCpan 4.1 prediction (rank <= 2); source: peptide pulsed on T2 cells (JNFAT assay); copies: + +

[3] = biological target: T3, HLA-A*02:01 in complex with peptide PLG_(92-100) (…) (Homo sapiens, HLA-A*02:01)
T3 construct: HLA class I heavy chain, allele HLA-A*02:01, human; beta-2-microglobulin, human; Plasminogen, human, residues 92-100; The presenting allele is assigned by NetMHCpan 4.1 prediction (rank <= 2); source: peptide pulsed on T2 cells (JNFAT assay); copies: + +

[4] = biological target: T4, HLA-A*02:01 in complex with peptide MAF_(116-124) (…) (Homo sapiens, HLA-A*02:01)
T4 construct: HLA class I heavy chain, allele HLA-A*02:01, human; beta-2-microglobulin, human; The presenting allele is assigned by NetMHCpan 4.1 prediction (rank <= 2); source: peptide pulsed on T2 cells (JNFAT assay); copies: + +

[5] = biological target: T5, HLA-A*02:01 in complex with peptide MSMO1_(164-172) (…) (Homo sapiens, HLA-A*02:01)
T5 construct: HLA class I heavy chain, allele HLA-A*02:01, human; beta-2-microglobulin, human; The presenting allele is assigned by NetMHCpan 4.1 prediction (rank <= 2); source: peptide pulsed on T2 cells (JNFAT assay); copies: + +

[6] = biological target: T6, HLA-A*02:01 in complex with peptide SHC1_(469-477) (…) (Homo sapiens, HLA-A*02:01)
T6 construct: HLA class I heavy chain, allele HLA-A*02:01, human; beta-2-microglobulin, human; The presenting allele is assigned by NetMHCpan 4.1 prediction (rank <= 2); source: peptide pulsed on T2 cells (JNFAT assay); copies: + +

[7] = biological target: T7, HLA-A*02:01 in complex with peptide CRYL1_(130-138) (…) (Homo sapiens, HLA-A*02:01)
T7 construct: HLA class I heavy chain, allele HLA-A*02:01, human; beta-2-microglobulin, human; The presenting allele is assigned by NetMHCpan 4.1 prediction (rank <= 2); source: peptide pulsed on T2 cells (JNFAT assay); copies: + +

[8] = biological target: T8, HLA-A*02:01 in complex with peptide SF3B4_(78-86) (…) (Homo sapiens, HLA-A*02:01)
T8 construct: HLA class I heavy chain, allele HLA-A*02:01, human; beta-2-microglobulin, human; Splicing factor 3B subunit 4, human, residues 78-86; The presenting allele is assigned by NetMHCpan 4.1 prediction (rank <= 2); source: peptide pulsed on T2 cells (JNFAT assay); copies: + +

[9] = biological target: T9, HLA-A*02:01 in complex with peptide CYP2C8_(59-67) (…) (Homo sapiens, HLA-A*02:01)
T9 construct: HLA class I heavy chain, allele HLA-A*02:01, human; beta-2-microglobulin, human; Cytochrome P450 2C8, human, residues 59-67; The presenting allele is assigned by NetMHCpan 4.1 prediction (rank <= 2); source: peptide pulsed on T2 cells (JNFAT assay); copies: + +

[10] = biological target: T10, HLA-A*02:01 in complex with peptide ILF2_(127-135) (…) (Homo sapiens, HLA-A*02:01)
T10 construct: HLA class I heavy chain, allele HLA-A*02:01, human; beta-2-microglobulin, human; The presenting allele is assigned by NetMHCpan 4.1 prediction (rank <= 2); source: peptide pulsed on T2 cells (JNFAT assay); copies: + +

[11] = biological target: T11, HLA-A*02:01 in complex with peptide ARHGEF26_(863-871) (…) (Homo sapiens, HLA-A*02:01)
T11 construct: HLA class I heavy chain, allele HLA-A*02:01, human; beta-2-microglobulin, human; The presenting allele is assigned by NetMHCpan 4.1 prediction (rank <= 2); source: peptide pulsed on T2 cells (JNFAT assay); copies: + +

[12] = biological target: T12, HLA-A*02:01 in complex with peptide RBM4B_(59-67) (…) (Homo sapiens, HLA-A*02:01)
T12 construct: HLA class I heavy chain, allele HLA-A*02:01, human; beta-2-microglobulin, human; The presenting allele is assigned by NetMHCpan 4.1 prediction (rank <= 2); also called RMB4B_(59-67); source: peptide pulsed on T2 cells (JNFAT assay); copies: + +

[13] = biological target: T13, HLA-A*02:01 in complex with peptide SET_(150-158) (…) (Homo sapiens, HLA-A*02:01)
T13 construct: HLA class I heavy chain, allele HLA-A*02:01, human; beta-2-microglobulin, human; The presenting allele is assigned by NetMHCpan 4.1 prediction (rank <= 2); source: peptide pulsed on T2 cells (JNFAT assay); copies: + +

[14] = biological target: T14, HLA-A*02:01 in complex with peptide HNRNPA1_(15-23) (…) (Homo sapiens, HLA-A*02:01)
T14 construct: HLA class I heavy chain, allele HLA-A*02:01, human; beta-2-microglobulin, human; Heterogeneous nuclear ribonucleoprotein A1, human, residues 15-23; The presenting allele is assigned by NetMHCpan 4.1 prediction (rank <= 2; printed rank 1.625); source: peptide pulsed on T2 cells (JNFAT assay); copies: + +

[15] = biological target: T15, HLA-A*02:01 in complex with peptide USP9Y_(1674-1682) (…) (Homo sapiens, HLA-A*02:01)
T15 construct: HLA class I heavy chain, allele HLA-A*02:01, human; beta-2-microglobulin, human; The presenting allele is assigned by NetMHCpan 4.1 prediction (rank <= 2); source: peptide pulsed on T2 cells (JNFAT assay); copies: + +

- binding result [1]: binds
- binding result [2]: binds
- binding result [3]: binds
- binding result [4]: binds
- binding result [5]: binds
- binding result [6]: binds
- binding result [7]: binds
- binding result [8]: binds
- binding result [9]: binds
- binding result [10]: binds
- binding result [11]: binds
- binding result [12]: binds
- binding result [13]: binds
- binding result [14]: binds
- binding result [15]: binds
B1: ESK1 antibody (antibody, V domains shown)
VH: QMQLVQSGAEVKEPGESLRISCKGSGYSFTNFWISWVRQMPGKGLEWMGRVDPGYSYSTYSPSFQGHVTISADKSTSTAYLQWNSLKASDTAMYYCARVQYSGYYDWFDPWGQGTLVTVSS
VL: not shown
notes: the constant region of the bait antibody is not described for ESK1
